# Experimental data taken from publication PMC6888739, “SiMYB3 in Foxtail Millet (Setaria italica) Confers Tolerance to Low-Nitrogen Stress by Regulating Root Growth in Transgenic Plants”.
# T1: SiMYB3 (Setaria italica, UniProt K3YEJ5 1-315)
# T1 sequence: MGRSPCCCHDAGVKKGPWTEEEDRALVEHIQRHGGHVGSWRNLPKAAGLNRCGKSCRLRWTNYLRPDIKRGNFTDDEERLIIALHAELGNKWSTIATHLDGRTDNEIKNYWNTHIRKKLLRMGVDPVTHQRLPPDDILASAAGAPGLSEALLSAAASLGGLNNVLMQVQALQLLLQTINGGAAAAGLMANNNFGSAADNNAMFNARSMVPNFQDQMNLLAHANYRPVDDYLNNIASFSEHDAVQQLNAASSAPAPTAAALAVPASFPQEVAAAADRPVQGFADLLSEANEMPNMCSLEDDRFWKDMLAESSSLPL
# Molecular target: T1, SiMYB3
# Assay: EMSA; EMSA 20 uL: 30 ng GST-SiMYB3, 400 fmol biotin probe, 10 mM Tris pH 7.5, 50 mM KCl, 1 mM DTT, 2.5% glycerol, 5 mM MgCl2, 50 ng/uL poly(dI-dC), 0.05% NP-40; temperature not stated
# Conditions: protein: recombinant; label: biotin
binder,measurement,value
TAR2 promoter MYB-element probe (dsDNA) DNA 1: TTAAGTACATGAGTTAGGTTCGTAATCCAATA DNA 2: TATTGGATTACGAACCTAACTCATGTACTTAA,binding result,binds
TAR2 promoter mutant probe (dsDNA) DNA 1: TTAAGTACATGATTAATTAACGTAATCCAATA DNA 2: TATTGGATTACGTTAATTAATCATGTACTTAA,binding result,no binding
OsFIB promoter MYB-motif probe (dsDNA) DNA 1: GCGATAGAATGTGTCGTATCCCGAGCTAGTTTTGTTCGAACATACAGCC DNA 2: GGCTGTATGTTCGAACAAAACTAGCTCGGGATACGACACATTCTATCGC,binding result,binds
